Series [1] can be described thus: ATPase activity at 0.05 ppm enzyme on 0.1 mM ATP (absorbance 620 nm). It counts as biochemical. Conditions: for Activity on ATP (absorbance at 620 nm, blank subtracted), pH 5.0: 50 mM IVIES buffer pH 5; for Activity on ATP (absorbance at 620 nm, blank subtracted), pH 6.0: 50 mM IVIES buffer pH 6. The procedure:
Enzyme activity towards ATP or ADP at pH 3 to 9: The ability of candidate enzymes to degrade ATP or ADP to AMP and free phosphate (Pi) was measured using a standard malachite green phosphate detection kit (Sigma Aldrich cat no. MAK307). The enzyme reactions were carried out in 96-well plates with a total volume of 150 μL and contained 250 μM of a substrate, 50 mM of a buffer, 5 mM CaCl2, and a variable concentration of enzyme. The substrate was ATP or ADP. The buffer was glycine (pH 3), acetate (pH 4, 4.5, 5), bis-Tris (pH 5.5, 6, 6.5), or Tris (pH 7, 8, 9). The concentration of enzyme varied from about 1 μg/mL to 1 ng/mL and was adjusted based on the activity of the enzyme so that the amount of phosphate released during the assay was with the dynamic range of the assay (5-100 μM phosphate). The enzyme concentration was determined by the absorbance at 280 nm and using the predicted molecular weight and molar extinction coefficient to calculate the concentration. The enzyme reaction was initiated by the addition of 15 μL enzyme with 135 μL of the other reaction components such that the final reaction composition was as previously described. The reaction was stopped after 5 min by mixing 80 μL of the reaction mixture with 20 μL of the malachite green working reagent. The malachite green working reagent was prepared according to the manufacturer's protocol by mixing 100 parts reagent A with 1 part reagent B. Phosphate standard solutions (0-80 μM) and a negative control reaction without enzyme were also mixed with the malachite green working reagent. All samples were tested in duplicate. The malachite green reaction mixture was allowed to rest at room temperature for 45-60 min and the absorbance at 620 nm was measured. Lastly, the absorbance of the phosphate standards were used to convert the absorbance readings of each sample into phosphate concentrations and the negative control was subtracted from each reaction.
Enzymes of interest were assayed against ATP substrate. The ATPase activity was measured at 0.05 ppm concentration in 50 mM IVIES buffer pH 6 and pH 5 with 0.1 mM ATP as substrate as described in Example 1. Commercial potato apyrase was used as reference. The absorbance at 620 nm was measured and the absorbance of a blank sample (water) was subtracted from each sample.

Series [2] is described as follows: pH profile of enzymes on 1 mM ATP. Conditions: 50 mM trisodium citrate/citric acid, 5 mM CaCl2, relative to the highest value. It counts as biochemical. Here is the method:
The pH profile of additional enzymes of interest was assayed using 1 mM ATP, in 50 mM trisodium citrate/citric acid buffer with 5 mM CaCl2. Absorbance was read at 620 nm and all values were set relative to the highest one. Commercial potato apyrase was used as reference. […]

This is an account of results in patent US20240124857A1, “COMPOSITION FOR GUT HEALTH” (DUPONT NUTRITION BIOSCIENCES APS, priority 2021, published 2024).

B1: CRC22620: GDA1/CD39 family enzyme, accession NBS62745.1, SEQ ID NO:16 (protein, listed as Betaproteobacteria sp.)
chain: EDAARYLAVIDAGSSGSRLHLYERTAAERSVAVKQLFEAKAGEALSSFERSPGDAGPRGIQPLLEQLLDRLALLNIERSAVHVHVLATAGMRRLDADNPAAAQVIYQSVRHTLSSAGVTARRIETLSGHLEGVYAWVDVNDLSGALASTPAGATVAVIEVGGASAQLAYSGEALAGAPVTAVRLNGRSHQVVSLTWLGLGQDEARRAMLNAARSRSNADEEHCYPDNRKAAGGLSAFDADGSRHLVARGRFSFEQCSEMYDAVIRPFDLPPLATAIRQSRRPLVGLASVYFSLADWQVIGQPGTLASTLRGQCEGEDAYGDKVIGFIRRDPKNRFAQTACANGTFIHALLFGPAGLRVDPAQVSAVARINGQPPSWARGFALLGR
As to B1, in series [1], the “Activity on ATP (absorbance at 620 nm, blank subtracted), pH 5.0” value (“Activity on ATP … pH 5.0” below) turned out to be 0.13 and the “Activity on ATP (absorbance at 620 nm, blank subtracted), pH 6.0” value (“Activity on ATP … pH 6.0” below) was determined as 0.22. Moreover, in series [2], the “Relative activity on ATP, pH 3” value was determined as 0.0; the “Relative activity on ATP, pH 3.5” value was determined as 0.0; the “Relative activity on ATP, pH 4” value is 0.0; the “Relative activity on ATP, pH 4.5” value was found to be 0.1. Further, in series [2], the “Relative activity on ATP, pH 5” value worked out at 0.4; the “Relative activity on ATP, pH 5.5” value amounted to 0.7; the “Relative activity on ATP, pH 6” value was 1.0; the “Relative activity on ATP, pH 6.5” value was found to be 0.8.

B2: CRC22383: GDA1/CD39 family enzyme, accession WP_058475114.1, SEQ ID NO:11 (protein, listed as Legionella quateirensis)
chain: ADNPCTNHQCIAVIDAGSTGSRLHVFSYDVDETRSPININEIWNKKIKPGFATIEPNSNTIDAYLTTLLSGAPNQQIPVYFYATAGMRLLPVSKQKKYYDELQHWFSQQSQWQLVEAKTITGNDEALYDWLSVNYHLGTLQKSLNQSVGVMDMGGASVQIVFPIQKNSELNTRSQVELDLYGQHYTLYVQSFLGLGQTEVAHQFLNSAPCFSNDYPLPDGESGQGNASACEQEVSRLMTEVHKVNNVIQPLLAANPVDSWYSIGGISNLADSSLFHFENSKLTNQNLLQQADSQVCHQQWDSLNSQFPDDEYVYQYCLFSAYYYALMVDGYGIVPDQSINYIPPAQNLDWTMGVVLHH
For the molecule B2, in series [1], the “Activity on ATP … pH 5.0” value was determined as 0.07 and the “Activity on ATP … pH 6.0” value worked out at 0.10.

B3: CRC22606: GDA1/CD39 family enzyme, accession OQW93475.1, SEQ ID NO:15 (protein, listed as Beggiatoa sp.)
chain: ETNGPAACHIVYDAGSSGTRLYIYEQQDKAWLEHEGPKVSALADPVREIRGKHWKDAESVTIEVVSALDSIKQDGPVKGDKPAWKAFDWTKHCQIKSAGVYATAGMRLAEQANKERSVTLWASLKQKLAAKLGPTVDIEARTLTGYEEGLYAWLAVREQQPDDSFAIAEMGGASAQITFPCAKCDENDPDTKTVQLSGKHLQIYSYSFLGLGQDEASHSLGFPTSCANGIGTQQSGWKAQDCANQIQLTGSKGIRDPYDFDGEQRGAHEQPPIAQADSNRWFLTGAFNYMNASNIETYCLKDPKLSEEESFCFRSIYPEKYLETLKIPVNSPKMNVSWTQGAVICKANSCLEAATKTPPLCRWLDKGCLP
With B3, in series [1], the “Activity on ATP … pH 5.0” value worked out at 0.43 and the “Activity on ATP … pH 6.0” value is 0.21. For the same molecule, in series [2], the “Relative activity on ATP, pH 3” value was found to be 0.0; the “Relative activity on ATP, pH 3.5” value amounted to 0.0; the “Relative activity on ATP, pH 4” value came out at 0.0; the “Relative activity on ATP, pH 4.5” value came to 0.3. In series [2], the “Relative activity on ATP, pH 5” value was found to be 0.6; the “Relative activity on ATP, pH 5.5” value worked out at 0.8; the “Relative activity on ATP, pH 6” value worked out at 0.9; the “Relative activity on ATP, pH 6.5” value is 1.0.

B4: CRC22387: GDA1/CD39 family enzyme, accession WP_127099836.1, SEQ ID NO:13 (protein, listed as Legionella sp.)
chain: QSSPCEKQQCIAIVDAGSTGSRLHIYAYDLDVTKTPIHIKELWNKKITPGFARIEANTNTIDSYLTILLADSPIKKIPIYFYATAGMRLLPQMKQKKYYDELSSWFKKHSEWQLVEAKTITGNEEGLYDWLSVNYHLGNFESPTNKSIGVMDMGGASVQIVFPIAETPTINDKSQIQVNLYGRHYNLYVHSFLGLGQTEMSHQFLNSASCFVNNYPLPDGAEGQGNALSCEQEVSSLMNQVHGVNQLIQPLLAANPVDSWYSIGGISNLADSQFFNFQHSQLTNQDLLEQADSQICHQQWEDINNQYPDDDYVYQYCLFSAYYYALMVDGYGLYPEQTINYLPPQQNIDWTTGVVLHQQR
On to B4, for which, in series [1], the “Activity on ATP … pH 5.0” value is 0.36 and the “Activity on ATP … pH 6.0” value worked out at 0.11. Also, in series [2], the “Relative activity on ATP, pH 3” value is given as 0.1; the “Relative activity on ATP, pH 3.5” value was 0.0; the “Relative activity on ATP, pH 4” value was found to be 0.0; the “Relative activity on ATP, pH 4.5” value came out at 0.1. In series [2], the “Relative activity on ATP, pH 5” value is given as 0.3; the “Relative activity on ATP, pH 5.5” value is given as 0.5; the “Relative activity on ATP, pH 6” value was 1.0; the “Relative activity on ATP, pH 6.5” value came out at 1.0.

B5: CRC22112: GDA1/CD39 family enzyme, accession KTD66016.1, SEQ ID NO:10 (protein, listed as Legionella santicrucis)
chain: ESAECTEHQCMAVVDAGSTGSRAHIFAYDLDETNTPSQIHEIWSKKIKPGLATIEANQDTIDAYLTILFSGAPKQNIPVYFYATGGMRLIPQTKQKLYYKEIQNWFNQQSIWQLIEAKTITGNDEALYDWLAVNYHIGTLKSSTTEPIGVMDIGGASVQIAFPIPKDVETNKSSQVELDLYGKHLNLFVHSFLGLGQNEVTHQLLDTNSCFSEGYPLPGGNLGQGDAVICQQEVSSLINRVHKVQSEVQPTLATNRITMWYAIGGLTNLVESEPFQFQNNQITNQDLLQQANSLICHQQWEGLSTQFPDNEYIESFCLLPAFYYALMIDGYGISVTQPVKYISPRENLDWTTGVVLHH
In the case of B5, in series [1], the “Activity on ATP … pH 5.0” value was 0.04 and the “Activity on ATP … pH 6.0” value is given as 0.06.

B6: CRC22605: GDA1/CD39 family enzyme, accession WP_133471262.1, SEQ ID NO:14 (protein, listed as Paraglaciecola sp.)
chain: QSKKPCYIVYDAGSSGTRLYIYEQLGANLISHEGPKVSALADPIRYTHGKDLSDLDTITNEVASALDLIKLDGPLEEGKPKWSGFDWSKQCEAQSVKVFATAGMRIAEQINPADSLVLWQTLASKINAKVGHNIKVEARTLTGFEEGLFAWLSVKDVYPSGHYGMVEMGGASSQITFPCPQCSLANDAVKTVTVDGKPIQIYSYSYLGLGQNEAPYSLPFGVAGQVPKSCSYGVGANNPDWTIASCAVEIPITAKGSNTDIIDPYNYTKTGTKGTTNTLPAAHKNIPKWLLMGAFNYAKETDIDDFCFNQHDGYYNAFTACFNPIYLDKYLKTLNIQAEQSSKVDVSWTQGAVICQIENCLATITPPPVCRWMKSGCLAY
In the case of B6, in series [1], the “Activity on ATP … pH 5.0” value came to 0.50 and the “Activity on ATP … pH 6.0” value was 0.28. Also, in series [2], the “Relative activity on ATP, pH 3” value came out at 0.0; the “Relative activity on ATP, pH 3.5” value is 0.0; the “Relative activity on ATP, pH 4” value is listed as 0.0; the “Relative activity on ATP, pH 4.5” value amounted to 0.0. Besides, in series [2], the “Relative activity on ATP, pH 5” value amounted to 0.4; the “Relative activity on ATP, pH 5.5” value was found to be 0.8; the “Relative activity on ATP, pH 6” value is reported as 1.0; the “Relative activity on ATP, pH 6.5” value is 1.0.

B7: CRC22386: GDA1/CD39 family enzyme, accession WP_173236575.1, SEQ ID NO:12 (protein, listed as Legionella antarctica)
chain: GTVSCNEHQCIAVIDAGSTGSRIHVYAYDMDETNTPVHINEVWTKKIKPGFATIEPNYESIEAYLVTLLSGAPNQDIPVYFYATAGMRLLPASKQKLYYQELQRWFSQQHQWRLIDAKTITGNEEALYDWLSVNYHLDTLKSIQNKSVGVMDMGGASVQIVFPIQKNEEINSNSQVELDLYGHHVNLYVHSFLGLGQTEMSHQFLNSVSCFANDYPLPDGESGRGNAPSCKQEVSSLMNGVHGVNKTIQPVLTANPVDTWFAIGGLTNLADNKLFHFENGELTNQNLMQQADSQICHQQWDKLNSEFPNDDYVYEYCLLSAYYYALMVDGYGIYPEQTVNYVSSALNLDWTKGVVLHH
Turning to B7, in series [1], the “Activity on ATP … pH 5.0” value was found to be 0.36 and the “Activity on ATP … pH 6.0” value is 0.25. In series [2], the “Relative activity on ATP, pH 3” value worked out at 0.0; the “Relative activity on ATP, pH 3.5” value was found to be 0.0; the “Relative activity on ATP, pH 4” value is 0.0; the “Relative activity on ATP, pH 4.5” value turned out to be 0.0. In series [2], the “Relative activity on ATP, pH 5” value turned out to be 0.2; the “Relative activity on ATP, pH 5.5” value is 0.6; the “Relative activity on ATP, pH 6” value is 0.8; the “Relative activity on ATP, pH 6.5” value came to 1.0.
